One molecule from patent US8969530B2, “Anti-clathrin heavy chain monoclonal antibody for inhibition of tumor angiogenesis and growth and application thereof” (Academia Sinica, priority 2011, dated 2015) can be followed below.

Experiment [1] relates to HUVECs. Put plainly: Inhibition of HUVEC VEGF internalization. Format: cell-based, human. The following applies: 50 μg/ml, VEGF-A 40 ng/ml. Here is the method: HUVEC were washed with serum-free medium, incubated in 1% BSA in serum-free medium at 37° C., and pretreated with Pa65-2 or NM-IgG (50 μg/ml) at 37° C. They were then incubated with or without VEGF-A (40 ng/ml) at 37° C. or 4° C. After cells were washed, fixed and made permeable. The permeable cells were incubated with anti VEGF-A antibody (A-20, Santa Cruz). Finally, cells were stained using Rhodamine-conjugated secondary antibodies.

For experiment [2], the system named is MIA PaCa-2 cells. Put plainly: MTT cell proliferation assay. It counts as cell-based, human. The following applies: 50 μg/ml for 3 days. Here is the method: Cells were cultured in 96-wells plates. To reduce cancer growth, the cells were culture in Dulbecco's modified Eagle's medium (DMEM) containing 50 μg/ml Pa65-2 or NM-IgG. After incubating for 0, 1, 2, 3 days, the cells were subjected to an MTT assay. The absorbance was determined with a microplate reader at 540 nm. Each assay was repeated for three times.
(Tetrazolium dyes change colour on reduction, which living cells bring about.)

For experiment [3], the system named is human pancreatic cancer tissue array. Put plainly: Immunohistochemistry of Pa65-2 on human pancreatic cancer tissue arrays. The following applies: for Labeling Score: score 0-4. Here is the method: The human pancreatic cancer gene expression arrays (Origene) were analyzed by an ABI9600 thermocycler (Applied Biosystems). Tissue arrays were purchased from Pantomics Inc. Tissue sections were stained with antibodies specific for CHC (Pa65-2), VEGF (GeneTex), HIF-1α (Millipore), NM-IgG, and UEA-1-FITC (Vector). Quantification of DAB intensity was by HistoQuest software (TissueGnostics). The protocol was approved by the institutional Review Board of Human Subjects Research Ethics Committee of Academia Sinica (Taipei).
We modified the “Quick Score” methods by reducing the original scales (Siegel et al. (2012) “Cancer statistics 2012” CA Cancer J Clin, 62, 10-29). Two indices were used in evaluating the staining results of tumors. Labeling Index (LI) indicates the number of tumor cells that were immunostained (or “positive cells”) as a proportion of the overall number of cells. A score on a scale of 0-2 was assigned; 0-10%=0, 11-49%=1, 50-100% =2. The second index is the Intensity Index (II), which measures the average intensity of the immunostaining. A score on a scale of 0-2 was assigned; no staining=0, weak staining=1, and strong staining=2. The scores from these two indices were added to give the tumor Labeling Score (LS), which ranges from 0-4.

The test system of experiment [4] is MIA PaCa-2 cells. Put plainly: Matrigel invasion assay. Format: cell-based, human. Here is the method: RT-CES (ACEA), a microelectronic cell sensor system, was used to count tire number of living cells. Cells (5×10^3) were seeded into each sensor-containing well in microliter plates. The electronic sensors provided a continuous (every 6 h), quantitative measurement of the cell index in each well. Cell growth was measured for 72 h, and cell indices for each well were recorded at all time points. Cell invasion was assayed in 24-well Biocoat Matrigel invasion chambers (8 μm; Millipore) according to the manufacturer's directions. Cells were counted under a microscope in five predetermined fields. Assays were performed in triplicate.

Experiment [5] has as its system MDAMB-231 (breast cancer), CL1-5 (lung cancer), SKOV3 (ovary cancer) and SAS (oral cancer). Put plainly: ELISA and Western blot binding on other cancer cell lines. It counts as cell-based, human. The following applies: MDAMB-231, CL1-5, SKOV3, SAS. Here is the method:
(§1) Cells were extracted with RIPA buffer and the supernatants were immunoprecipitated using either anti-CHC antibody, Pa65-2, mAb X-22 (Affinity), or anti-HIF-1α antibody (BD), then analyzed by immunoblotting. The signals were developed using enhanced chemiluminescence reagents (ECL) (Thermo).
Cells were cultured in 96-well polystyrene plates for 3 days and then fixed with 2% paraformaldehyde. After blocking and washing twice with PBS/0.1 % Tween 20 (PBST0.1), the hybridoma supernatants were added and the plates were incubated for 2 h at room temperature. This was followed by washing and incubating with horseradish peroxidase (HRP)-conjugated goat anti-mouse IgG for 1 h. The colorimetric reaction was developed with the substrate ortho-phenylene-diamine (OPD) according to the manufacturer's instructions (Sigma), and was stopped by adding 3 N HCl. Absorbance at 490 nm was measured using a microplate reader. Each control and test group was tested in triplicate. Each experiment was repeated at least three times. […] The stained cells were washed twice and fluorescence signals were measured using a FACScan (BD).
3×10^3 cells were cultured into each well of 96-well polystyrene plates for 3 days and fixed with 2% paraformaldehyde. […] Absorbance at 490 nm was measured using a microplate reader. […]
On the technique in general: ELISA stands for enzyme-linked immunosorbent assay.

For experiment [6], the target named is T1, human clathrin heavy chain (CHC) (Homo sapiens, UniProt Q00610).
T1 construct: endogenous in cells; host or cells: MIA PaCa-2 (human pancreatic adenocarcinoma cells)
T1 sequence (Q00610 whole entry): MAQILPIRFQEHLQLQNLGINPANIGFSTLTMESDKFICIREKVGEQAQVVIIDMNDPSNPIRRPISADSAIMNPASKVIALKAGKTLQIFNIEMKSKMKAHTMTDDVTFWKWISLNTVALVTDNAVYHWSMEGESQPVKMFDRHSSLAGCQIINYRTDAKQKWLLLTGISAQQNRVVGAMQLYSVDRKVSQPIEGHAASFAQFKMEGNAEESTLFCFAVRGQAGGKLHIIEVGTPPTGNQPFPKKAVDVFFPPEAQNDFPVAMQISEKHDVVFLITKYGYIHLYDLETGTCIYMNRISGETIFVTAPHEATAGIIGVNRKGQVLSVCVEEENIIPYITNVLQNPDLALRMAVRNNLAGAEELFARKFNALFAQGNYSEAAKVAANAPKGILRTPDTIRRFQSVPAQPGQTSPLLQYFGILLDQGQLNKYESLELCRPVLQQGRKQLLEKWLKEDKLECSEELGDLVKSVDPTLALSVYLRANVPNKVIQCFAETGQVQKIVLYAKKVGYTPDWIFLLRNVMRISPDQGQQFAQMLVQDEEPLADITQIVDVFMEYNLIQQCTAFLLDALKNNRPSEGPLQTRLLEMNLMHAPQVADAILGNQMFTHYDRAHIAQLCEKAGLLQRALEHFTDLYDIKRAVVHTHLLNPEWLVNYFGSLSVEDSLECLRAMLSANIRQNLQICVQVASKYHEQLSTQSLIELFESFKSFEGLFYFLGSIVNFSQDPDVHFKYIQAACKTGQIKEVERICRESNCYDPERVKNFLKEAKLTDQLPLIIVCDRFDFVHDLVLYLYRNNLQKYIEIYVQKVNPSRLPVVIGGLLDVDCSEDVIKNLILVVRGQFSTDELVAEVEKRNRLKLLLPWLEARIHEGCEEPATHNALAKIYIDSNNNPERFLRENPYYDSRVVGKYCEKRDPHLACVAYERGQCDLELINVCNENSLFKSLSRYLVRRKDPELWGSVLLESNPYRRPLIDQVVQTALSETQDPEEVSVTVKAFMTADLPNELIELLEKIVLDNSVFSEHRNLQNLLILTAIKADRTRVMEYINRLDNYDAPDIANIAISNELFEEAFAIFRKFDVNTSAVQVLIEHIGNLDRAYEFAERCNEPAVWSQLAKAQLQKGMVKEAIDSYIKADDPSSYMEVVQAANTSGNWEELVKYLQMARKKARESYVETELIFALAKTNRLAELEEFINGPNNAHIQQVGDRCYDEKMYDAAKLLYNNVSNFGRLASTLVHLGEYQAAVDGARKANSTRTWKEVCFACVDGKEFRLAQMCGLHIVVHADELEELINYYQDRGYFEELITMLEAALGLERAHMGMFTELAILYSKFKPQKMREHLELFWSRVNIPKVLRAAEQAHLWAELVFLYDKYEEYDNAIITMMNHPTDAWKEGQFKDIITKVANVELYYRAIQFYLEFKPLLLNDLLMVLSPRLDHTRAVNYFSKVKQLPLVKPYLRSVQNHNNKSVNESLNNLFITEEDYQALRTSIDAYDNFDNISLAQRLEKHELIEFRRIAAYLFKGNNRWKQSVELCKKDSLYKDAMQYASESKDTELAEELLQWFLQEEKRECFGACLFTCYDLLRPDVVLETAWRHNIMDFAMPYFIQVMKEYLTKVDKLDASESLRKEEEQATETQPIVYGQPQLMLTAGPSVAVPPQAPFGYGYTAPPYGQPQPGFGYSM
Put plainly: Target identification: immunoaffinity, LC-MS/MS, immunoprecipitation and Western blot. The note with it: immunoprecipitation and Western blot in parallel with mAb X-22; CHC knockdown. Format: binding. Here is the method:
MIA PaCa-2 cell lysates were purified by protein G sepharose (GE), coupled with Pa65-2 and eluted with elution buffer. The eluates were separated by SDS-PAGE. The band of interest was cut from the gel, reduced with dithioerythreitol (DTE) alkylated with iodoacetamide (IAA) and digested with trypsin for 16 h at 37° C. The digested peptides were analyzed by LC-MS/MS sequencing in the Core Facility for Proteomics and Structural Biology Research at Academia Sinica (Taipei).
as §1
A general note: A western blot detects proteins with antibodies after separation by electrophoresis.

B1: Pa65-2: monoclonal antibody that recognizes human clathrin heavy chain (CHC); VH SEQ ID NO: 2, VL SEQ ID NO: 3 (antibody, listed as Homo sapiens, V domains shown)
VH: EVKLVESGGGLVKPGGSLNISCAASGFTFSNYVMSWVRQTPEKRLEWVATISSGDNYMYYPDSVKGRFTISSDNAKNTLFLQMSSLRSEDTALYYCARHFDNYEGNSMDYWGQGTSVTVSSAKTTPPSDYPLA
VL: DIVLTQSPATLSVTPGDSVSLSCRASQSIRSNLHWYQQKSHESPRLLIKYASQSISGIPSRFSGSGSGTDFILSINSVATEDFGVYFCQQSNSWPLTFGAGTKLELKRADAAPTVS
Consider B1, for which the VEGF internalization entry in experiment [1] is reported as “suppressed VEGF internalization”. In experiment [2], the cancer cell proliferation entry was “inhibited”. Besides, the “staining of pancreatic cancer tissues” value in experiment [3] (46 specimens, tissue array) is reported as “positively stained”. Further, the “Labeling Score” value came to 3 in experiment [3] (Adenocarcinoma I, stage T2N0M0); 2 in experiment [3] (Adenocarcinoma I, stage T2N1M0); 3 in experiment [3] (Adenocarcinoma I, stage T3N0M0); 3 in experiment [3] (Adenocarcinoma I, stage T3N1M0); 2 in experiment [3] (Adenocarcinoma II, stage T2N0M0); 3 in experiment [3] (Adenocarcinoma II, stage T3N0M0). In addition, the “Labeling Score” value is given as 3 in experiment [3] (Adenocarcinoma II, stage T3N1MX); 4 in experiment [3] (Adenocarcinoma II, stage T4N1M1); 3 in experiment [3] (Adenocarcinoma III, stage T3N0M0); 3 in experiment [3] (Adenocarcinoma III, stage T3N1MX); 0 in experiment [3] (Normal Pancreas). The “staining of normal pancreatic tissues” value in experiment [3] (two normal pancreatic tissues, tissue array) is listed as “two normal pancreatic tissues were not”. In experiment [4], the “migration (FIG. 5C)” value is listed as “inhibited”. In experiment [5], the “binding to other types of cancer cell lines” value is recorded as “can also bind”. Besides, the “specificity for CHC” value in experiment [6] is listed as “specifically recognized CHC”.
